# Test results from the Immune Epitope Database (IEDB).
# How the values were obtained:
# [1] = target: HLA-B*40:01; assay: IEDB peptide-MHC binding, purified MHC/competitive/radioactivity; filed as Kd, often an IC50 or EC50 that approximates it; ≥ and ≤ were set here for values at or beyond the usual limits of such assays
# [2] = target: HLA-B*08:01; assay: as above
# [3] = target: HLA-A*02:01; assay: IEDB peptide-MHC binding, purified MHC/competitive/fluorescence; filed as Kd, often an IC50 or EC50 that approximates it; ≥ and ≤ were set here for values at or beyond the usual limits of such assays
# [4] = target: HLA-A*02:01; assay: IEDB peptide-MHC binding, purified MHC/competitive/radioactivity; filed as Kd, often an IC50 or EC50 that approximates it; ≥ and ≤ were set here for values at or beyond the usual limits of such assays
# [5] = target: HLA-A*02:02; assay: as above
# [6] = target: HLA-A*02:03; assay: as above
# [7] = target: HLA-A*02:06; assay: as above
# [8] = target: HLA-B*15:01; assay: as above
# [9] = target: HLA-A*03:01; assay: as above
# [10] = target: HLA-A*30:02; assay: as above
# [11] = target: HLA-A*68:01; assay: as above; details: source organism: SARS coronavirus Tor2
# [12] = target: HLA-A*31:01; assay: as above; details: source organism: SARS coronavirus Tor2
# [13] = target: HLA-A*33:01; assay: as above; details: source organism: SARS coronavirus Tor2
# [14] = target: HLA-A*26:01; assay: as above
# [15] = target: HLA-A*11:01; assay: as above; details: source organism: SARS coronavirus Tor2
# [16] = target: HLA-A*24:02; assay: as above
# [17] = target: HLA-A*23:01; assay: as above
# [18] = target: HLA-A*29:02; assay: as above
# [19] = target: HLA-A*01:01; assay: as above
# [20] = target: HLA-B*15:01; assay: IEDB peptide-MHC binding, purified MHC/competitive/fluorescence; filed as Kd, often an IC50 or EC50 that approximates it; ≥ and ≤ were set here for values at or beyond the usual limits of such assays
# [21] = target: HLA-A*32:01; assay: IEDB peptide-MHC binding, purified MHC/competitive/radioactivity; filed as Kd, often an IC50 or EC50 that approximates it; ≥ and ≤ were set here for values at or beyond the usual limits of such assays
# [22] = target: HLA-A*30:01; assay: as above
# [23] = target: HLA-B*15:01; assay: IEDB peptide-MHC binding, purified MHC/direct/fluorescence; filed as Kd, often an IC50 or EC50 that approximates it; ≥ and ≤ were set here for values at or beyond the usual limits of such assays; details: source organism: SARS-CoV1
# [24] = target: HLA-A*69:01; assay: as above; details: source organism: SARS-CoV1
# [25] = target: HLA-A*03:01; assay: as above; details: source organism: SARS-CoV1
# [26] = target: HLA-B*07:02; assay: IEDB peptide-MHC binding, purified MHC/competitive/radioactivity; filed as Kd, often an IC50 or EC50 that approximates it; ≥ and ≤ were set here for values at or beyond the usual limits of such assays
# [27] = target: HLA-B*35:01; assay: as above
# [28] = target: HLA-B*51:01; assay: as above
# [29] = target: HLA-B*53:01; assay: as above; details: source organism: Dengue virus 3 Martinique/1243/1999
# [30] = target: HLA-A*11:01; assay: IEDB peptide-MHC binding, purified MHC/direct/fluorescence; filed as Kd, often an IC50 or EC50 that approximates it; ≥ and ≤ were set here for values at or beyond the usual limits of such assays; details: source organism: SARS-CoV1
# [31] = target: HLA-B*58:01; assay: as above; details: source organism: SARS-CoV1
# [32] = target: HLA-A*01:01; assay: as above; details: source organism: SARS-CoV1
# [33] = source organism: Dengue virus 1 Brazil/97-11/1997
# [34] = source organism: Vaccinia virus WR
# [35] = source organism: Dengue virus 4 Philippines/H241/1956
# [36] = source organism: SARS coronavirus Tor2
# [37] = source organism: Dengue virus 3 Martinique/1243/1999
# [38] = source organism: Bacillus cereus G9241
# [39] = source organism: Mammarenavirus juninense
# [40] = source organism: Mammarenavirus guanaritoense
# [41] = source organism: Dengue virus 2 Jamaica/1409/1983
# [42] = source organism: Vaccinia virus Copenhagen
sequence,measurement,setting,value
AETQHGTVLV,Kd,[1]; [33],98.4 nM
AGRRSVSGDL,Kd,[2]; [33],9260 nM
AINVEKIEL,Kd,[3]; [34],≥ 20000 nM
ALCKVTVPT,Kd,[4]; [34],31 nM
same,Kd,[5]; [34],110 nM
same,Kd,[6]; [34],130 nM
same,Kd,[7]; [34],210 nM
ALLAGFMAY,Kd,[8]; [35],1.14 nM
same,Kd,[9]; [35],1.67 nM
same,Kd,[10]; [35],80 nM
ALRFFLQRL,Kd,[2]; [34],1990 nM
ANISTILYF,Kd,[8]; [34],128 nM
AQGKPTLDF,Kd,[8]; [35],3.09 nM
ATVAYFNMVY,Kd,[11],549 nM
same,Kd,[12],2330 nM
same,Kd,[13],≥ 70000 nM
same,Kd,[14]; [36],979 nM
same,Kd,[15],74.2 nM
same,Kd,[16]; [36],13000 nM
same,Kd,[17]; [36],≥ 30900 nM
same,Kd,[9]; [36],269 nM
same,Kd,[18]; [36],0.00633 nM
same,Kd,[19]; [36],893 nM
same,Kd,[10]; [36],1210 nM
EIFKHLVFF,Kd,[8]; [34],12.2 nM
FCSHHFHEL,Kd,[2]; [37],135 nM
FIASKGVKLV,Kd,[4]; source organism: Homo sapiens,37 nM
FLETDAGRV,Kd,[4]; source organism: Variola virus,100 nM
FQNWGIESI,Kd,[3]; source organism: Influenza A virus (A/Wilson-Smith/1933(H1N1)),2.3 nM
FQTLMHSPF,Kd,[20]; [38],23.1 nM
FSPRLCRPF,Kd,[20]; source organism: Escherichia coli 536,325 nM
GEKSRCYSIY,Kd,[21]; [39],≥ 69900 nM
same,Kd,[22]; [39],2190 nM
same,Kd,[14]; [39],18000 nM
same,Kd,[16]; [39],≥ 70300 nM
same,Kd,[17]; [39],≥ 70000 nM
same,Kd,[18]; [39],≥ 51800 nM
same,Kd,[19]; [39],13900 nM
same,Kd,[10]; [39],3160 nM
HTNFESFTV,Kd,[21]; [40],682 nM
same,Kd,[22]; [40],182 nM
same,Kd,[14]; [40],≥ 36600 nM
same,Kd,[16]; [40],≥ 77500 nM
same,Kd,[17]; [40],≥ 48200 nM
same,Kd,[18]; [40],11200 nM
same,Kd,[19]; [40],440 nM
same,Kd,[10]; [40],971 nM
IINKRKKTSL,Kd,[2]; [37],83.9 nM
ILIEGVFFA,Kd,[4]; source organism: Human alphaherpesvirus 2,0.16 nM
KRKLRTLIL,Kd,[2]; [33],462 nM
LAGPMVAGGL,Kd,[2]; [35],7750 nM
LAKRFSKGLL,Kd,[2]; [33],2530 nM
LEFEALGFLN,Kd,[1]; source organism: Murray valley encephalitis virus (strain MVE-1-51),144 nM
LEYTIVITPH,Kd,[1]; [41],2470 nM
LIIICCVSG,Kd,[8]; [42],403 nM
LIIMDEAHF,Kd,[8]; [41],19 nM
LINNGKCTF,Kd,[8]; [34],61.9 nM
LLALQQLEV,Kd,[23],3790 nM
same,Kd,[24],242 nM
same,Kd,[25],2020 nM
same,Kd,[3]; source organism: SARS-CoV1,2.7 nM
same,Kd,[5]; [36],0.138 nM
same,Kd,[6]; [36],0.295 nM
same,Kd,[7]; [36],41.9 nM
LLKFRVESC,Kd,[2]; [42],74.4 nM
LNINKNGSF,Kd,[8]; [34],479 nM
LPQHLTLRAQ,Kd,[26]; [33],265 nM
same,Kd,[27]; [33],520 nM
same,Kd,[28]; [33],≥ 31700 nM
LPVCQSSSM,Kd,[26]; [37],10.5 nM
same,Kd,[27]; [37],12.6 nM
same,Kd,[29],1010 nM
same,Kd,[28]; [37],2740 nM
LSEKWFTHA,Kd,[8]; [34],19100 nM
LVEKVLKIL,Kd,[3]; source organism: Vaccinia virus,992 nM
MECSPRTGL,Kd,[1]; [41],153 nM
MLVTPSMAM,Kd,[8]; [33],3.06 nM
same,Kd,[14]; [33],6420 nM
same,Kd,[27]; [33],442 nM
MPVTVASAAQ,Kd,[26]; [33],446 nM
same,Kd,[27]; [33],391 nM
same,Kd,[28]; [33],≥ 69600 nM
NQYLLTMFF,Kd,[8]; [34],1.21 nM
QETWNRQDLL,Kd,[1]; [33],9.21 nM
QLQPFLQPQL,Kd,[4]; source organism: Triticum aestivum,≥ 10000 nM
QNHKKSAHF,Kd,[8]; [34],412 nM
RDALDNLAVL,Kd,[2]; [41],1160 nM
RKSGKKVIQL,Kd,[2]; [35],301 nM
RLNALGKSEF,Kd,[8]; [41],17.2 nM
RMFHFFEHE,Kd,[8]; [34],66.9 nM
RTKAIGLNF,Kd,[20]; [38],84.7 nM
RVIDPRRCM,Kd,[26]; [41],1150 nM
SEIKRGLFF,Kd,[8]; [34],323 nM
SMPDFDLHL,Kd,[4]; source organism: Homo sapiens,5.2 nM
SNAAIGAVF,Kd,[8]; [33],77.8 nM
SYEHQTPFEI,Kd,[14]; [36],10400 nM
same,Kd,[16]; [36],1240 nM
same,Kd,[17]; [36],945 nM
same,Kd,[18]; [36],7160 nM
same,Kd,[19]; [36],3680 nM
same,Kd,[10]; [36],7060 nM
TCDWTNAGDY,Kd,[14]; [36],≥ 25000 nM
same,Kd,[16]; [36],≥ 70300 nM
same,Kd,[17]; [36],≥ 70000 nM
same,Kd,[18]; [36],2020 nM
same,Kd,[19]; [36],133 nM
same,Kd,[10]; [36],672 nM
TMADLVYAL,Kd,[14]; [36],≥ 77900 nM
same,Kd,[16]; [36],10100 nM
same,Kd,[17]; [36],6580 nM
same,Kd,[5]; [36],0.183 nM
same,Kd,[18]; [36],≥ 23000 nM
same,Kd,[6]; [36],16.2 nM
same,Kd,[19]; [36],≥ 62500 nM
same,Kd,[10]; [36],≥ 93800 nM
same,Kd,[7]; [36],46.5 nM
TPQPKPGTRM,Kd,[26]; [35],39.9 nM
same,Kd,[27]; [35],177 nM
TQDLFLPFY,Kd,[23],1710 nM
same,Kd,[30],424 nM
same,Kd,[31],≥ 31500 nM
same,Kd,[32],1810 nM
same,Kd,[14]; [36],16800 nM
same,Kd,[16]; [36],≥ 77600 nM
same,Kd,[17]; [36],≥ 67400 nM
same,Kd,[18]; [36],426 nM
same,Kd,[10]; [36],5.13 nM
TQWCSRSVY,Kd,[20]; source organism: Escherichia coli 101-1,84.3 nM
TTAEEAAGI,Kd,[4]; source organism: Homo sapiens,4170 nM
TVIDLEPISY,Kd,[8]; [35],1.36 nM
same,Kd,[19]; [35],8390 nM
VEAGRTLRVL,Kd,[1]; source organism: Dengue virus 2 Peru/IQT2913/1996,12.1 nM
VEETNMITL,Kd,[1]; source organism: Dengue virus 4 Dominica/814669/1981,27.1 nM
VIEEVMNIV,Kd,[4]; source organism: Lassa virus GA391,6250 nM
YMGEDGCWY,Kd,[8]; [37],14.8 nM
same,Kd,[19]; [37],177 nM
same,Kd,[10]; [37],≥ 36900 nM
YVFFEIIHF,Kd,[8]; [42],0.692 nM
